Measured values: patent publication US20190177371A1 (published 2019)
Blank lines part the entries; values can stand above or below the binder they belong to.

Columns and labels:
[1] = biological target: T1, human melanocortin 1 receptor (human, UniProt Q01726 1-317); assay: cell-based or functional assay
[2] = biological target: T1, human melanocortin 1 receptor; assay: competition binding vs [125I]-NDP-α-MSH, whole HEK293 cells stably expressing the receptor
[3] = biological target: T1, human melanocortin 1 receptor; assay: competition binding vs [125I]-NDP-α-MSH, A375 human melanoma cells

T1 sequence (Q01726 whole entry): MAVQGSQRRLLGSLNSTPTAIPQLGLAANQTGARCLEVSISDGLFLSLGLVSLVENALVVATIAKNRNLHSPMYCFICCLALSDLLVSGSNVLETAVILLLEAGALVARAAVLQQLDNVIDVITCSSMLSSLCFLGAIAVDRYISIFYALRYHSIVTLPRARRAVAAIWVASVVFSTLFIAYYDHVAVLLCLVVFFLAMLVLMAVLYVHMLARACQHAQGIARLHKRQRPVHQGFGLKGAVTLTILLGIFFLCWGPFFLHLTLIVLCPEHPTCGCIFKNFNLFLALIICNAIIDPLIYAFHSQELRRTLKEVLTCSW

EC50 (cAMP) [1]: 20 nM
B1: Peptide 28: Ac-Nle-c[Asp-(NMe)His-nal-(NMe)Arg-(NMe)Trp-(NMe)Lys]-NH2 (peptide)
peptide: LDHXRWK
modifications: N-terminal acetyl; Nle at 4; D-Nal(2') (nal) at 7; side-chain lactam Asp5-Lys10; C-terminal amide; backbone N-methyl on His6, Arg8, Trp9 and Lys10 (α-MSH 4-10 numbering)

IC50 [2]: 68 nM
B2: Peptide 32: Ac-Nle-c[Asp-(NMe)His-(NMe)nal-(NMe)Arg-(NMe)Trp-(NMe)Lys]-NH2 (peptide)
peptide: LDHXRWK
modifications: N-terminal acetyl; Nle at 4; D-Nal(2') (nal) at 7; side-chain lactam Asp5-Lys10; C-terminal amide; backbone N-methyl on His6, nal7, Arg8, Trp9 and Lys10 (α-MSH 4-10 numbering)
notes: also called Penta-N-methylated compound 32

IC50 [3]: 14.8 nM
EC50 (cAMP) [1]: 22 nM
B3: Peptide 15: Ac-Nle-c[Asp-(NMe)His-nal-(NMe)Arg-Trp-Lys]-NH2 (peptide)
peptide: LDHXRWK
modifications: N-terminal acetyl; Nle at 4; D-Nal(2') (nal) at 7; side-chain lactam Asp5-Lys10; C-terminal amide; backbone N-methyl on His6 and Arg8 (α-MSH 4-10 numbering)
